Values quoted from earlier work as cited in paper PMC10162908.

Molecular target: EED (Homo sapiens) (UniProt O75530)
Chain of UniProt O75530 (O75530 2-441): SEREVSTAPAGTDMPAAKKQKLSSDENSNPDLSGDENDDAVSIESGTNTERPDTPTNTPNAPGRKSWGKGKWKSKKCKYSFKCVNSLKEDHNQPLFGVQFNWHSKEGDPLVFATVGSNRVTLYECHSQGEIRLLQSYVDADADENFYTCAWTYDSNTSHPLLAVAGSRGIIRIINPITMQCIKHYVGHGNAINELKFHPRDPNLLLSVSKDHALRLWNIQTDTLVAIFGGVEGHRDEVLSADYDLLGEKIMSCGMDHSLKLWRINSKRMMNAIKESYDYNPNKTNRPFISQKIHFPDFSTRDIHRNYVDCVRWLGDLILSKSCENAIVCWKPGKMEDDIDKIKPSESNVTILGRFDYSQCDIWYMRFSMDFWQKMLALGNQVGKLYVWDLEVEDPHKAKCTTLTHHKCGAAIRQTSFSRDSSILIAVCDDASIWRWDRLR

In the case of “Jarid2 K116me3 peptide 114-118 (from UniProt Q92833)”, the Kd is listed as 8.82 µM.
